The text below walks through data of IntAct's records for PubMed 28348268.

Sequences and labels used below:
B1: HLA class I histocompatibility antigen, alpha chain G (Homo sapiens), P17693-2 (parent)
chain: MVVMAPRTLFLLLSGALTLTETWAGSHSMRYFSAAVSRPGRGEPRFIAMGYVDDTQFVRFDSDSACPRMEPRAPWVEQEGPEYWEEETRNTKAHAQTDRMNLQTLRGYYNQSEANPPKTHVTHHPVFDYEATLRCWALGFYPAEIILTWQRDGEDQTQDVELVETRPAGDGTFQKWAAVVVPSGEEQRYTCHVQHEGLPEPLMLRWKQSSLPTIPIMGIVAGLVVLAAVVTGAAVAAVLWRKKSSD

Variants of B1 are the subject of the test. The settings on record: with lirb2_human LILRB2, Q8N423.
lirb2_human LILRB2, Q8N423, sequence (Q8N423 whole entry): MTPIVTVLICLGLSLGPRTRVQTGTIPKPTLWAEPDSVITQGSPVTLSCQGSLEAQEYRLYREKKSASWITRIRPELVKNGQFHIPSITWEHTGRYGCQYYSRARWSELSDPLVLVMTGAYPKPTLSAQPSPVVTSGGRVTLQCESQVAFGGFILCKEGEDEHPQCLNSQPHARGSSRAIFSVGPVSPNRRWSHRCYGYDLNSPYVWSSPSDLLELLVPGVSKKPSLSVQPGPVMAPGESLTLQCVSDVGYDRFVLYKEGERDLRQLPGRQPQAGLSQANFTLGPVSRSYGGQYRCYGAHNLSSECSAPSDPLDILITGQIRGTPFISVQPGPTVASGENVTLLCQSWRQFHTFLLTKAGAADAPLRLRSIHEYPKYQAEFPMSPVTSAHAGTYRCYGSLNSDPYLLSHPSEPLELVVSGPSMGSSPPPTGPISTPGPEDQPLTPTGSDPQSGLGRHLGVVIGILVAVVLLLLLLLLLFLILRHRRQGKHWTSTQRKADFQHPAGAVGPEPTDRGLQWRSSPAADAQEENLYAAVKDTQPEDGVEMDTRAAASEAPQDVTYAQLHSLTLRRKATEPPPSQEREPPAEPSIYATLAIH
Regarding MVVMAPRTLFLLLSGALTLTETWAGSHSMRYFSAAVSRPGRGEPRFIAMGYVDDTQFVRFDSDSASPRMEPRAPWVEQEGPEYWEEETRNTKAHAQTDRMNLQTLRGYYNQSEANPPKTHVTHHPVFDYEATLRCWALGFYPAEIILTWQRDGEDQTQDVELVETRPAGDGTFQKWAAVVVPSGEEQRYTCHVQHEGLPEPLMLRWKQSSLPTIPIMGIVAGLVVLAAVVTGAAVAAVLWRKKSSD [C66S], the “effect of a mutation on the interaction” value is “with no effect”.
